Biological target: 3′-end processing factors
Assay: immunoprecipitation under standard salt conditions

tRNA endonuclease
percent of the 3′-end processing factors associated: < 1%

Reference: patent US20050053985A1
